Source: the Human Domainome abundance scans (Beltran et al. 2025)
± gives the uncertainty stated by the source.

B1: TOX high mobility group box family member 3, residues 256 to 323; numbered along this chain, O15405 (parent)
chain: QKPVSAYALFFRDTQAAIKGQNPNATFGEVSKIVASMWDSLGEEQKQVYKRKTEAAKKEYLKALAAYR

Variants of: B1
Assay: abundance fitness (aPCA) (normalised: wild type 0, dead -1); higher = more abundant; growth selection in yeast, the domain comes from the species named
Details: Homo sapiens

Variant | abundance fitness
QKPVSAYWLFFRDTQAAIKGQNPNATFGEVSKIVASMWDSLGEEQKQVYKRKTEAAKKEYLKALAAYR | -0.252 ± 0.098
QKPVSAYCLFFRDTQAAIKGQNPNATFGEVSKIVASMWDSLGEEQKQVYKRKTEAAKKEYLKALAAYR | 0.163 ± 0.097
QKPVSAYMLFFRDTQAAIKGQNPNATFGEVSKIVASMWDSLGEEQKQVYKRKTEAAKKEYLKALAAYR | 0.219 ± 0.056
QKPVSAYALFFRDTQAAIKGQNPNATFGEVSKIVASMWDSLGEEQKQVYKRKTEAAKKEYWKALAAYR | -0.19 ± 0.08
QKPVSAYALFFRDTQAAIKGQNPNATFGEVSKIVASMWDSLGEEQKQVYKRKTEAVKKEYLKALAAYR | -0.054 ± 0.074
QKPVSAYALFFRDTQAAIKGQNPNATFGEVSKIVASMWDSLGEEQCQVYKRKTEAAKKEYLKALAAYR | -0.714 ± 0.18
QKPVSAYALFFRDTQAAIKGQNPNATFGEVLKIVASMWDSLGEEQKQVYKRKTEAAKKEYLKALAAYR | -0.637 ± 0.073
QKPVSAYALFFRDTQAAIKGQNPNATFGEVSKIVASMWDSLGEEQKQVYKRKTEAAKKEYLKALDAYR | 0.078 ± 0.084
QKPVSAYALFFRDTQAAIKGQNPNATFGEVSKIVASMWDSLGEEQKQVYKRKTEAAKKEYLKALLAYR | -0.03 ± 0.056
QKPVSAYALFFRDTQAAIKGQNPNATFGEVSKIVASRWDSLGEEQKQVYKRKTEAAKKEYLKALAAYR | 0.013 ± 0.042
QKPVSAYALFFRDTQQAIKGQNPNATFGEVSKIVASMWDSLGEEQKQVYKRKTEAAKKEYLKALAAYR | -0.133 ± 0.077
QKPVSAYALFFRDTQWAIKGQNPNATFGEVSKIVASMWDSLGEEQKQVYKRKTEAAKKEYLKALAAYR | -0.324 ± 0.093
QKPVSAYALFFRDTQAAIKGQNPNATFGEVSKIVASMWDSLGEEQKQVYKRKTEAAKKEYLKSLAAYR | 0.132 ± 0.043
QKPVSAYALFFRDTQAAIKGQNPNATFGEVSKIVASMWDSLGEEQKQVYKRKTEAAKKEYLKCLAAYR | -0.105 ± 0.089
QKPVSAYALFFRDTQAAIKGQNPNATFGEVSKIVASMWDSLGEEQKQVYKRKTEAAKKEYLKPLAAYR | 0.111 ± 0.048
QKPVSAYALFFRDTQAAIKGQNPNATFTEVSKIVASMWDSLGEEQKQVYKRKTEAAKKEYLKALAAYR | -0.028 ± 0.086
QKPVSAYALFFRDTQAAIKGQNPNATFGEVSKIVASMWDSLGEEQKQVYKRKTEAAKKEYLKALAALR | -0.044 ± 0.057
QKPVSAYALFFRDTQAAIKGQNPNATFGEVSTIVASMWDSLGEEQKQVYKRKTEAAKKEYLKALAAYR | -0.055 ± 0.065
QKPVSAKALFFRDTQAAIKGQNPNATFGEVSKIVASMWDSLGEEQKQVYKRKTEAAKKEYLKALAAYR | -0.033 ± 0.077
QKPVSAYALFFRDTQAAIKGQNPNATFGEVSKIVASMWDSLGEYQKQVYKRKTEAAKKEYLKALAAYR | -0.955 ± 0.25

Variant | abundance fitness
QKPVSAYALFARDTQAAIKGQNPNATFGEVSKIVASMWDSLGEEQKQVYKRKTEAAKKEYLKALAAYR | -0.19 ± 0.068
QKPVSAYALFKRDTQAAIKGQNPNATFGEVSKIVASMWDSLGEEQKQVYKRKTEAAKKEYLKALAAYR | -0.205 ± 0.091
QKPVSAYALFFGDTQAAIKGQNPNATFGEVSKIVASMWDSLGEEQKQVYKRKTEAAKKEYLKALAAYR | -0.223 ± 0.067
QKPVSAYALFFRDTQAAIKGQNPNATFGEVSKIVASMWDSLGEEQKDVYKRKTEAAKKEYLKALAAYR | 0.033 ± 0.12
QKPVSAYALFFRDTQAAIKGQNPNATFGEVSKIVASMWDSLGEEQKTVYKRKTEAAKKEYLKALAAYR | -0.42 ± 0.14
QKPVSAYALFFRDFQAAIKGQNPNATFGEVSKIVASMWDSLGEEQKQVYKRKTEAAKKEYLKALAAYR | -0.99 ± 0.34
QKPVSAYALFFRDTQAAIKGQNPNATFGEVSKIVASMWDSLGEEQKQVYKRKTEAAKKYYLKALAAYR | -0.577 ± 0.19
QKPVSAYALFFRDTQAAIKGQNMNATFGEVSKIVASMWDSLGEEQKQVYKRKTEAAKKEYLKALAAYR | -0.743 ± 0.13
QKPVSAYALFFRDTQAAIKGQNPNATFGEVSKIMASMWDSLGEEQKQVYKRKTEAAKKEYLKALAAYR | -0.443 ± 0.092
QKPVSAYALFFRDTQAAIKGQNPNATFGEPSKIVASMWDSLGEEQKQVYKRKTEAAKKEYLKALAAYR | -0.776 ± 0.25
QKPVSAYALFFRDTQAAIKGQNPNATFGEVSKIVASMWDSLGEEVKQVYKRKTEAAKKEYLKALAAYR | -0.278 ± 0.079
QKPVSAYALFFRDTQAAIKGQNPNATFGEVSKIVASMWDSLGEETKQVYKRKTEAAKKEYLKALAAYR | -0.114 ± 0.098
QKPVSAYALFFRDTQAAIKGQNPNATFGEVSKIVASMWDSLGEEQKQVYKRKTENAKKEYLKALAAYR | 0.001 ± 0.063
QKPVSAYALFFRDTQAAIKGQNPNATFGEVSKIVASMWDSLGEEQKQVYKRKTEAAKKEYLLALAAYR | -0.344 ± 0.049
QKPVSAYALFFRDTQAAIKGQNPNATFGEVSKIVASMWDSLGEEQKQVYKRKTEAAKKEYLIALAAYR | -0.538 ± 0.093
QKPVSAYALFFRDTQAAIKGQNPNATFGEVSKIVASMIDSLGEEQKQVYKRKTEAAKKEYLKALAAYR | -1.2 ± 0.42
QKPVSAYALFFRDTQAAIKGQFPNATFGEVSKIVASMWDSLGEEQKQVYKRKTEAAKKEYLKALAAYR | -0.298 ± 0.12
QKPVSAYALFFRDTQAAIKGQVPNATFGEVSKIVASMWDSLGEEQKQVYKRKTEAAKKEYLKALAAYR | -0.149 ± 0.083
QKPVSAYALFFRDTQAAIKGQYPNATFGEVSKIVASMWDSLGEEQKQVYKRKTEAAKKEYLKALAAYR | -0.121 ± 0.11
